Reference: patent US20110110857
Residue numbers refer to the chain shown, from its start. In names and notes the source's numbering stands.

B1: wild type C. muridarum HtrA (TC0210) (protein)
chain: SPMLGYSAPKKDSSTGICLAASQSDRELSQEDLLKEVSRGFSKVAAQATPGVVYIENFPKTGSQAIASPGNKRGFQENPFDYFNDEFFNRFFGLPSHREQPRPQQRDAVRGTGFIVSEDGYVVTNHHVVEDAGKIHVTLHDGQKYTAKIIGLDPKTDLAVIKIQAKNLPFLTFGNSDQLQIGDWSIAIGNPFGLQATVTVGVISAKGRNQLHIVDFEDFIQTDAAINPGNSGGPLLNIDGQVIGVNTAIVSGSGGYIGIGFAIPSLMAKRVIDQLISDGQVTRGFLGVTLQPIDSELAACYKLEKVYGALITDVVKGSPAEKAGLRQEDVIVAYNGKEVESLSALRNAISLMMPGTRVVLKVVREGKFIEIPVTVTQIPAEDGVSALQKMGVRVQNLTPEICKKLGLASDTRGIFVVSVEAGSPAASAGVVPGQLILAVNRQRVSSVEELNQVLKNAKGENVLLMVSQGEVIRFVVLKSDE
B2: TC0210-(H143R) (protein)
chain: B1 chain with H127R
B3: wild-type C. trachomatis HtrA (CT823) (protein)
chain: SPMLGYSASKKDSKADICLAVSSGDQEVSQEDLLKEVSRGFSRVAAKATPGVVYIENFPKTGNQAIASPGNKRGFQENPFDYFNDEFFNRFFGLPSHREQQRPQQRDAVRGTGFIVSEDGYVVTNHHVVEDAGKIHVTLHDGQKYTAKIVGLDPKTDLAVIKIQAEKLPFLTFGNSDQLQIGDWAIAIGNPFGLQATVTVGVISAKGRNQLHIVDFEDFIQTDAAINPGNSGGPLLNINGQVIGVNTAIVSGSGGYIGIGFAIPSLMAKRVIDQLISDGQVTRGFLGVTLQPIDSELATCYKLEKVYGALVTDVVKGSPAEKAGLRQEDVIVAYNGKEVESLSALRNAISLMMPGTRVVLKIVREGKTIEIPVTVTQIPTEDGVSALQKMGVRVQNITPEICKKLGLAADTRGILVVAVEAGSPAASAGVAPGQLILAVNRQRVASVEELNQVLKNSKGENVLLMVSQGDVVRFIVLKSDE

What was measured:
[1] = target: bovine serum albumin, P02769
[2] = target: C. muridarum Major Outer Membrane Protein (MOMP)

bovine serum albumin, P02769, sequence (P02769 25-607): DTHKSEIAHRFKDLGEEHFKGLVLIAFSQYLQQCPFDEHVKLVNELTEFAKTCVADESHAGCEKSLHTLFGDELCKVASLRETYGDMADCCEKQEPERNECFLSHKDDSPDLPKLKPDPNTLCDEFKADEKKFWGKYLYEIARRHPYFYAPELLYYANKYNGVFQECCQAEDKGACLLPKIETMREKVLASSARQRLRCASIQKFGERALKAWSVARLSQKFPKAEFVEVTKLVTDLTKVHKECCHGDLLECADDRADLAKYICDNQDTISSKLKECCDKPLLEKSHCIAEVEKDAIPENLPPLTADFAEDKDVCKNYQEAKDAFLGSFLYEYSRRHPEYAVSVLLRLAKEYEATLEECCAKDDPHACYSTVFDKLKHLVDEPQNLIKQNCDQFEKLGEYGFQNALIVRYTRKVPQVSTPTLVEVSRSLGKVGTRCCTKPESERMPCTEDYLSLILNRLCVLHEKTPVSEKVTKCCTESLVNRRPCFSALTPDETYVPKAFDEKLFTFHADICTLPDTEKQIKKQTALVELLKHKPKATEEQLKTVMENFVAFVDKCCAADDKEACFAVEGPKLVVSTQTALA

| Protein | protease digestion of BSA, SDS-PAGE/Coomassie, with DTT [1] | protease digestion of MOMP, SDS-PAGE/Coomassie, with DTT [2] | protease digestion of MOMP, SDS-PAGE/Coomassie, without DTT [2] | protease digestion of MOMP, SDS-PAGE/Coomassie, with and without DTT [2] | protease digestion of BSA, overnight at 37 C, SDS-PAGE/Coomassie, with DTT [1] |
| --- | --- | --- | --- | --- | --- |
| B1 | possesses a strong protease activity as it degrades the BSA substrate (lane 5) | completely degrades MOMP protein in the presence of DTT (lane 7) | strongly degrades MOMP protein in the absence of DTT (lane 5) | – | – |
| B2 | does not degrade the BSA substrate (lane 3) | – | – | does not degrade the MOMP protein, either in the presence of DTT (lane 8) or in the absence of DTT (lane 6) | – |
| B3 | – | – | – | – | strong protease activity in the presence of the reducing agent DTT (dithiothreitol) as shown by degradation of the intact BSA protein |
